Results on 1 molecule are retold here after publication PMC11336091.

In this data set the target is T1, BmFoxO (Bombyx mori, UniProt H9BVM3 1-512).
T1 sequence: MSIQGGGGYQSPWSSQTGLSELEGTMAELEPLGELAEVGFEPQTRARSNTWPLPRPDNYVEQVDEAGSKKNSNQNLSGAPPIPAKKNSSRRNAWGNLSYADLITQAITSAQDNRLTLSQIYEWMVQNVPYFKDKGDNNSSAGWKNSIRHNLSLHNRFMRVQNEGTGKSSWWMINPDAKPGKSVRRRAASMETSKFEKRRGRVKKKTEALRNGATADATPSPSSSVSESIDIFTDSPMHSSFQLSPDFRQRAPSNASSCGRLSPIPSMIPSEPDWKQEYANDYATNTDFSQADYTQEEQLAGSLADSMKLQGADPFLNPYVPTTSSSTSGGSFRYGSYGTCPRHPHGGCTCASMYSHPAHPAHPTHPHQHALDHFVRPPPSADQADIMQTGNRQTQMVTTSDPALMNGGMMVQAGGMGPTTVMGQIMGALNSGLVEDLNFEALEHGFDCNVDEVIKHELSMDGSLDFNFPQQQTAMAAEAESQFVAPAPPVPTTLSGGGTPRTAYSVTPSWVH
Nature of the data set: EMSA. (In general: In EMSA bound probe runs differently from free probe, usually more slowly.)

B1: BmOSER1 promoter EMSA probe (dsDNA)
DNA 1: TGTATTAAAAACTTATATAAACTGTGATCT
DNA 2: AGATCACAGTTTATATAAGTTTTTAATACA
Regarding B1, the binding result is “binds”.
